Test results reported in a protein production outcome set (Wang et al. 2014).

Experiment: label from the status in PepcDB records

| Sequence | protein production |
| --- | --- |
| MLETLYAFFDLGQFSQSPINGSHNPGLVILSYCVALLASYTAILTLERVQIYQAKVARYSWLIVSAVISGVGVWSMHFIGMLAFELHLPMSHSVLLTLISVVPAIVGSFIAMKIQMSLSSVRATLIAGTVLGAGIGLMHYTGMAAMEMSAHLRYDPLWFVLSVFVAVSLGIIALLAYRHYKKSERTSWFRRRSAQIVVAAIIALAISGMHYTAMIAANFYPTRAPDAVFSGHGNWLAYVVGIGSCLTAIMAIIASQIDRRLQQQQKLAQMSAEQLYEVISAIDDGLLLFDEHNRVLLANQAFTRLTGDDLERIKGSKLNIEDYIERSDKLLENIKNSLARRVAWQGKVNVRKRSGTTFPVRLSISKVRYNQQKERHFVATVTDISAEVESSERIRYLAYNDALTGLANRRSLLDHLQDQLATYKEAGQNGALILCDIDKFKILNNTLGSDMGDLLLKRVAERLQSSTKANSFLARLSANEFAVVLTGLERGNSVNIKQQLLTRIYQLLDQLQQPYQLNSYTHLCSFSAGASLFDDSESNAETLMTQSGLALSHSKRKGTGEVSLFRQEFADAVSKRVKLEEQLRNAIKQNEFELYLQPQVNIESKPTGAEALIRWKQSDGRFVSPADFIPLAEETGLIVPLGYWITERACQILQQWQQSPEKAKMQLSINVSAKQFQQPEFVEQVQLLVEKYEIRPHRLKLELTESLLMDDISSVTNKIKQLKRLGIEFALDDFGTGYSSLSYLMQIPFDTLKIDVSFVRNMLDSMEKAQIVYTIIQLGESLKLNIVAEGVETEEQFNYLARLNCDTFQGYLFSKPVPESEFLADKTAP | failed |
| MLEVVYIVGAFGSPLLTPPTLAVAGFLIAVLMGLEYGVLWVLTGESLNRELILVISNIVYSIAWSITALPFTPIYYTLQPYFSQPLLIYLYLALFIGSILLGVIPAIMYIRKYLQFNKIQKEFKQLELDYKSINQEYSEINTRLNKAKEEINNVMDKINKAKELHETALRDPDLIVTALDKKPEIPEVIRPNVNYVVAGLGGTGTALLEALIDYLVSKNVIKEDGTNPFLFVAFDTNQASIARLRKKYEYTPVGKLLYTFNNFEALTTANIISHNPWLAGLNVDVIQGSGMKRAIGYASYNTVKEAMMEDILRRLSDLIAKTRTNRIFLIVFTALGGGTGSGSFIHFTKDFISRLGRITGDSEPYVRVSGM | failed |
| MLFDEKEILAITRWAKLYANQSPDRILLGSNDIPPEYRAAVATQIELWPRLRNKLPQWAGISSLYIPSRLSLEQSSGAVTSSYKSRFIREGTKVVDLTGGLGIDFIALMSKASQGIYIERNDETAVAARHNIPLLLNEGKDVNILTGDFKEYLPLIKTFHPDYIYVDPARRSGADKRVYAIADCEPDLIPLATELLPFCSSILAKLSPMIDLWDTLQSLLHVQELHVVAAHGEVKELLVRMSLNEATIPPEKVPIHAINLLLEDTVIPFIFTMEEERSISIPYTDSIDKYVYEPHTALLKAGAFKTVAYRLGLRKLHPNSHLYTSEAYESAFPGRTFVLEEIIPFSTSVLKQLRKVVPQASISCRNFPLSPIELRQRSKMADGGEKTLMGTTMADGKKVLLLLRKAE | not failed |
| MLFFADRSPFVRPLSGYAPVTPAAPRSTGSAAAPPPSPAVLDDRSGTEGDVTPMMAQYLAVKAAHPDCLLFYRMGDFYEMFFEDAVKAAETLDIALTKRGRHAGADIPMCGVPIHSHEGYLSRLIRAGIKVAICEQMEDPAEARRQRGYKAVVRRDVIRVVTAGTLTEDELLDARAHNYLAAVVRLRDAVGMAWVDVSTGDLVAQPLAEADIGPALARLAPGEVLMPEKLAGDPALREILAPLAGRISPLPASRFDSENARKRVEGLFGVKALDGFGGFGRAEVAAIGALIDYVELTQVGRLPRLSPPRRLSLGAILEIDGATRRNLELTETLGGGRKGSLLARIDCTVTGAGARLLAERLAAPLTDPAQIGARLDGVGFLVSAERVRGDLRDTLRGCPDIARALSRLSLGRGGPRDLAAIGEALSRIPALRVLVVGAGLGEPPTELTAALIDLGSHEGLVDLLGRALDADLPLLARDGGFIRPGYDAGLDELRALRDEGRRLIAGLQARYASETAIPALKIKHNNVLGYFIEVAAGRADKLMAAGGPFLHRQTLASQVRFTTVELSELEDKIRGAADKALALEQALFATLCAEVLGCAADIARAANGLACLDVAAALADLAARERYARPVVDNSTAFRIHKGRHPVVEAALADQAGPAFVANDCDLAPDQRLWLLTGPNMAGKSTFLRQNALIAVLAQMGSFVPAESAEIGVIDRLFSRVGAADDLARGRSTFMVEMVETAAILNQATERSLVILDEIGRGTATYDGLSIAWATVESLHDATRCRALFATHYHELTALASRLDRLSCHTLRIKEWKDQVVFLHEVGPGAADRSYGIHVAKLAGLPAAVIARAEQVLAILEKGDASSAATRLADDLPLFAAARPRAGLPTPPPGPHPLAEALNAINPDEMTPREALDALYRLKAVMKRE | failed |
